In publication PMC3183022 (Molecular Biology of the Cell, 2011):
Values belong to the binder of their own block, whether it stands above or below them.

Columns and labels:
[1] = target: His-tagged retrolinkin (aa 31–460) (mouse, UniProt Q8BHE4 31-460); experiment: pull-down
[2] = target: mouse retrolinkin amino-terminus (amino acids 31–460) fused to GST (mouse, UniProt Q8BHE4 31-460); experiment: pull-down
Sequence of mouse retrolinkin amino-terminus (amino acids 31–460) fused to GST (Q8BHE4 31-460): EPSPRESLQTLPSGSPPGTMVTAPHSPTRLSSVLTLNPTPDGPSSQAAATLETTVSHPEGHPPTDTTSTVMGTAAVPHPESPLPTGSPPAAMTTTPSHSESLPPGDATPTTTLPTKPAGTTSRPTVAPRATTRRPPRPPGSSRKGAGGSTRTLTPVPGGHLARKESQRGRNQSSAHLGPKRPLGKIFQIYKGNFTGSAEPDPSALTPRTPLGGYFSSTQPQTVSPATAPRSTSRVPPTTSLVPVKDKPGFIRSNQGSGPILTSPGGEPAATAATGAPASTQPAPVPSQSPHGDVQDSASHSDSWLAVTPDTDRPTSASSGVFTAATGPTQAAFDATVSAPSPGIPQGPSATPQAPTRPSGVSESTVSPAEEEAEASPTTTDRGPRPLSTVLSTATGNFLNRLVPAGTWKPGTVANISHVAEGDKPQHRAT

Sequence of His-tagged retrolinkin (aa 31–460) (Q8BHE4 31-460): as above

- binding result [1]: binds
B1: GST-tagged endophilin A1 SH3 domain (aa 295–346) (domain or fragment)
chain: not shown

- binding result [2]: binds
B2: recombinant His-tagged endophilin A1 (natural protein, mouse, UniProt Q62420 1-352, looked up)
chain: MSVAGLKKQFHKATQKVSEKVGGAEGTKLDDDFKEMERKVDVTSRAVMEIMTKTIEYLQPNPASRAKLSMINTMSKIRGQEKGPGYPQAEALLAEAMLKFGRELGDDCNFGPALGEVGEAMRELSEVKDSLDMEVKQNFIDPLQNLHDKDLREIQHHLKKLEGRRLDFDYKKKRQGKIPDEELRQALEKFDESKEIAESSMFNLLEMDIEQVSQLSALVQAQLEYHKQAVQILQQVTVRLEERIRQASSQPRREYQPKPRMSLEFATGDSTQPNGGLSHTGTPKPPGVQMDQPCCRALYDFEPENEGELGFKEGDIITLTNQIDENWYEGMLHGQSGFFPINYVEILVALPH
